Measured values published in patent US20170173114A1, “METHODS AND COMPOSITIONS FOR INDUCTION OF UCP1 EXPRESSION” (Joslin Diabetes Center, Inc., priority 2014, published 2017).
Entries after “also recorded” stand apart in the source; their conditions may differ.

Columns and labels:
UCP1 [1] = test: High-throughput screen of secreted proteins for UCP1 mRNA induction in committed brown preadipocytes; format: cell-based, murine; conditions: after induction media; secreted protein library
Method: To identify protein(s) that can induce UCP1 expression in brown preadipocytes, a high-throughput screen was performed using a protein library containing more than 5,000 mammalian secreted proteins (Lin H. et al., Science 320:807-811, 2008) in an immortalized murine brown preadipocyte cell line (Klein J. et al., J. Biol. Chem. 274:34795-34802, 1999; Tseng Y. H. et al., Nat. Cell. Biol. 7:601-611, 2005). The screen included applying induction media to brown preadipocyte cells, resulting in committed brown preadipocytes.

[2] = test system: PPARγ, aP2, FAS, PRDM16, PGC1α, CIDEA; test: Adipogenic and brown fat marker mRNA expression in WT-1 brown preadipocytes; format: cell-based, murine
Method: Total RNA was isolated with QIAzol lysis reagent (Qiagen, Valencia, Calif.) and purified by RNeasy Mini columns (Qiagen) following the manufacture's instructions. cDNA was prepared from total RNA using the Advantage RT-PCR kit (BD Biosciences, Palo Alto, Calif.) according to manufacturer's instructions. Diluted cDNA was used in a PCR reaction with SYBR Green Master Mix (Applied Biosystems, Foster City, Calif.) and primers specifically designed for detection of the gene of interest. PCR reactions were run in duplicate for each sample and quantitated in the ABI Sequence Detection System (Applied Biosystems). Data were expressed as arbitrary units after normalization to levels of expression of internal controls for each sample. Sequences of primers for specific genes are each obtained from the published literature or designed using publically available gene sequence databases. Unless otherwise indicated, gene expression data described in the examples below was obtained using QPCR.
The effect of FGF6 on differentiation of WT-1 murine brown preadipocytes was also examined. WT-1 cells can be induced to undergo brown adipocyte differentiation, characterized by lipid accumulation and expression of adipogenic and brown fat markers, as described above (Klein et al. (1999) J Biol Chem 274:34795; Tseng et al. (2005) Nat Cell Biol 7:601). WT-1 cells were treated with FGF6 in growth media (DMEM+10% FBS), a vehicle control (“control” or “C” referred to in FIGS. 3A-D), or induction media (“induction” or “I” referred to in FIGS. 3A-D) as described above for seven days. Following the treatment, cells were examined for the color of the culture media in combination with oil Red O staining, expression of adipogenic markers, expression of brown fat markers, immunofluorescent staining of cells with UCP1 and DPAI, and Western blot analysis to determine the presence of UCP1 and β-tubulin. The results are described in FIGS. 3A to 3D.
FGF2, FGF6 and FGF9 were used at a dosage of 50 ng/mL, 100 ng/mL, 200 ng/mL or 300 ng/mL. FGF21 was used at the dosage of 50 ng/ml and 500 ng/mL. The concentration of BMP7 was 3.3 nM. RNA was isolated and UCP1 and PPARγ expression levels were evaluated by quantitative reverse transcription polymerase chain reaction (Q-RT-PCR) analysis after 24 hours (i.e., 1 day) (FIG. 14A), 2 days (FIG. 14B), 5 days (FIG. 14C) and 7 days (FIG. 14D) of treatment. All experiments were performed triplicate and the data are presented as mean+/−SEM.
FGF2, FGF6 and FGF9 were used at a dosage of 200 ng/mL. FGF21 was used at a dosage of 500 ng/mL. The concentration of BMP7 was 3.3 nM. mRNA was isolated and UCP1 and PPARγ expression levels were evaluated by quantitative reverse transcription polymerase chain reaction (Q-RT-PCR) analysis after 24 hours (i.e., 1 day), 2 days, 5 days and 7 days of treatment (FIG. 15). All experiments were performed triplicate and the data are presented as mean+/−SEM.

preadipocytes = test: Transmission electron microscopy of mitochondria in preadipocytes; format: cell-based; conditions: preadipocytes overexpressing FGF6 vs control
Method: To determine if FGF6 treatment affects the overall health condition of mitochondria, mitochondrial attributes such as mitochondria biogenesis, mass, morphology and dynamics were measured. Mitochondrial mass was measured by a cell-permeable dye (MitoTracker Green FM) and by transmission electron microscopy (EM). MitoTracker Green FM accumulates in mitochondria in live cells irrespective of mitochondrial membrane potential. The intensity of fluorescence was visualized by microscopy and quantitated by flow cytometry. Mitochondrial morphology and ultra-structure (such as cristae and granules) was assessed by EM.

UCP1 [3] = test: UCP1 mRNA expression in C2C12 myogenic progenitors; format: cell-based; conditions: three days
[4] = Glucose levels after subcutaneous injection in Chow or high fat diet mice; format: in vivo, C57BL6 mice; conditions: 0.5 mg/kg subcutaneous; vs buffer
Method: To determine whether induction of UCP1 and mitochondrial activity by FGF6 could lead to increased nutrient utilization and lower blood glucose or fatty acid in obese mice, diet-induced obese (DIO) mice were treated with recombinant FGF6, and glucose levels were monitored after injection. Specifically, C57BL6 mice (11 weeks) were fed on either a high fat diet (HFD) or a Chow diet (a regular animal diet as a control) and were injected subcutaneously with 0.5 mg/kg recombinant FGF6 (n=5) or buffer (n=5). Glucose levels were measured every 6 hours after injection.

B1: FGF6: fibroblast growth factor 6; recombinant human FGF from R&D Systems, or mouse FGF6 cDNA overexpressed by lentiviral vector (protein)
chain: KRQRRLYCNVGIGFHLQVLPDGRISGTHEENPYSLLEISTVERGVVSLFGVRSALFVAMNSKGRLYATPSFQEECKFRETLLPNNYNAYESDLYQGTYIALSKYGRVKRGSKVSPIMTVTHFLPRI
UCP1 mRNA expression in committed brown preadipocytes (screen) (UCP1 [1]): induced UCP1 mRNA expression
PPARγ expression level, time course ([2]; 200 ng/mL with insulin and T3, 1, 2, 5, 7 days): very low levels of PPARγ
PPARγ expression level ([2]; 50-300 ng/mL with insulin and T3, 1, 2, 5 and 7 days): very low levels of PPARγ
expression of transcriptional regulators of UCP1 (PGC1α, PPARγ, PRDM16) ([2]; 50-300 ng/mL, three days): did not increase
mRNA expression of other brown fat markers (PRDM16, PGC1α, CIDEA) ([2]; WT-1, seven days): did not, in contrast, have as significant an impact
mRNA expression of adipogenic markers (PPARγ, aP2, FAS) ([2]; WT-1, seven days, control, induction media or FGF6): only the induction media significantly increased each of the adipogenic markers
number of mitochondria by transmission electron microscopy (preadipocytes): fewer mitochondria
shape of mitochondria by transmission electron microscopy (preadipocytes): longer shape
UCP1 mRNA expression in C2C12 myogenic progenitors (UCP1 [3]): neither FGF6 nor FGF21 induced UCP1 mRNA expression; also recorded: no induction of UCP1
glucose level, Chow diet mice [4]: reduction in glucose levels; also recorded: lowers glucose levels
glucose level, high fat diet (obese) mice [4]: lowers glucose levels
